Substrate in this data set: O=C(Nc1cc(Cl)cc(Cl)c1)Nc1cc(Cl)cc(Cl)c1
The experiment in a line: Kinetics of GST-P using COH-SR4 as a substrate. The class given is biochemical. The conditions noted are these: other: COH-SR4 as substrate, 1 mM GSH, pH 6.5, 340 nm, 37.0 °C. How it is done: The cDNA of GSTP was cloned into the prokaryotic expression plasmid vector, pET30a(+) (Novagen), creating the GSTP-pET30a(+) plasmid free of extraneous sequences. Bam H1 and Xhol restriction sites were used for cloning. This plasmid was transfected into E. coli BL21 (DE3). Protein was expressed in E. coli BL21 (DE3) grown at 37° C. Once the OD600 reached 0.6 protein was induced with 0.4 mM IPTG.
All purification steps were carried out at 4° C. unless otherwise specified. All buffers were prepared fresh and filter sterilized. Briefly, bacteria was lysed in 10 mM K-PO4 buffer pH 7.0 containing 1.4 mM β-mercaptoethanol (Buffer A) and 100 μM PMSF followed by sonication at 50 rpm for 3 times at 30 sec each. […] The supernatant was mixed with GSH-affinity resin for coupling for overnight at 4° C. The unbound proteins were washed with Buffer B until OD at 280 nm is zero. Bound protein (purified GSTP) was eluted with 50 mM Tris-HCl, pH 9.6 containing 1.4 mM β-mercaptoethanol. Elutes protein was dialyzed against Buffer A for overnight and the GSTP protein concentration was checked by Bradford's assay.
Reaction systems were prepared by mixing COH-SR4 (50 μL, various final concentrations of 0˜10 μM), 100 μL of 10 mM GSH (GSH solution in GST assay buffer, pH 6.5), 10 μL of GSTP enzyme (0.52 mg/mL) and having 840 μL GST assay buffer (100 mM K-PO4 buffer, pH 6.5). […]

B1: GST-P (Homo sapiens) (protein)
chain: MPPYTVVYFPVRGRCAALRMLLADQGQSWKEEVVTVETWQEGSLKASCLYGQLPKFQDGDLTLYQSNTILRHLGRTLGLYGKDQQEAALVDMVNDGVEDLRCKYISLIYTNYEAGKDDYVKALPGQLKPFETLLSQNQGGKTFIVGDQISFADYNLLDLLLIHEVLAPGCLDAFPLLSAYVGRLSARPKLKAFLASPEYVNLPINGNGKQ
notes: made in house; host or cells: E. coli BL21 (DE3)
One may read the Km as the substrate concentration at which the rate is half of its maximum. On to B1, for which the Km was 40 µM.

The values are drawn from patent US9808434B2, “Compound for treating cancer and diabetes” (CITY OF HOPE, priority 2011, dated 2017).
